According to EP2467164A2 (dated 2012):
Blank lines part the entries; values can stand above or below the binder they belong to.

Tests used:
[1] = target: T1, ErbB1 on AdrR cells (UniProt P00533 25-1210, limits assumed); assay: flow cytometry, biotinylated BTC (Figure 15)
T1 construct: whole, on cells; also called EGFR; ErbBl

[2] = target: T2, ErbB3 expressed on MALME-3M melanoma cells (human, UniProt P21860 20-1342); assay: cell binding assay on MALME-3M cells, flow cytometry, one-site model
T2 construct: Endogenous ErbB3 of the MALME-3M cell line; also called ErbB3 on MALME-3M cells

[3] = target: T3, recombinant ErbB3 (human, UniProt P21860 20-643); assay: surface plasmon resonance, antibody as ligand, recombinant ErbB3 as analyte
T3 construct: also called HER3

[4] = target: T4, ErbB3 (human, UniProt P21860 20-643, limits assumed); assay: KinExA
T4 construct: also called ErbB3 domain; HER3

[5] = target: ErbB3 on AdrR cells (human, UniProt P21860 20-1342); assay: cell-based or functional assay

- binding result [1]: binds
B1: betacellulin (ligand, UniProt P35070 32-111, looked up)
chain: DGNSTRSPETNGLLCGDPEENCAATTTQSKRKGHFSRCPKQYKHYCIKGRCRFVVAEQTPSCVCDEGYIGARCERVDLFY
modifications: biotinylated in the FACS assay of Example 7 (site not stated)
notes: also called BTC; biotinylated BTC

- Kd [2]: ~1.3 nM
- Kd [3]: ~8 nM
B2: Ab #3 (antibody, V domains shown)
VH: EVQLLESGGGLVQPGGSLRLSCAASGFTFSAYNMRWVRQAPGKGLEWVSVIYPSGGATRYADSVKGRFTISRDNSKNTLYLQMNSLRAEDTAVYYCARGYYYYGMDVWGQGTLVTVSS
VL: QSVLTQPPSASGTPGQRVTISCSGSDSNIGRNYIYWYQQFPGTAPKLLIYRNNQRPSGVPDRISGSKSGTSASLAISGLRSEDEAEYHCGTWDDSLSGPVFGGGTKLTVL

- Kd [4]: 0.769 nM
- koff [4]: 0.00011 s⁻¹
- kon [4]: 143000 M⁻¹ s⁻¹
- BTC-induced ErbB3 phosphorylation in AdrR cells (IC50) [5]: 5.9 nM
- HRG-induced ErbB3 phosphorylation in AdrR cells (IC50) [5]: 2.4 nM
- Kd [2]: ~4 nM
- Kd [3]: ~4 nM
B3: Ab #6 (antibody, V domains shown)
VH: EVQLLESGGGLVQPGGSLRLSCAASGFTFSHYVMAWVRQAPGKGLEWVSSISSSGGWTLYADSVKGRFTISRDNSKNTLYLQMNSLRAEDTAVYYCTRGLKMATIFDYWGQGTLVTVSS
VL: QSALTQPASVSGSPGQSITISCTGTSSDVGSYNVVSWYQQHPGKAPKLIIYEVSQRPSGVSNRFSGSKSGNTASLTISGLQTEDEADYYCCSYAGSSIFVIFGGGTKVTVL
notes: also called MM-121; anti-ErbB3 antibody Ab #6
